Measurements reported in patent US20170247448A1 (INTRINSIC LIFESCIENCES, published 2017).

How the values were obtained:
[1] = molecular target: T1, MAb 583; test: C-ELISA with purified MAb 583; competitor NT-biotin hepcidin-25
T1 construct: Murine monoclonal, Protein A purified

[2] = molecular target: T2, BAP070-01 (human-mouse chimeric MAb 583); test: C-ELISA, BAP070-01 supernatant on Protein G; competitor NT-biotin hepcidin-25; four parameter fit
T2 construct: used as CHO cell supernatant; also called BAP070-1
Method: The plate was washed with TBST and one (1) ng/well of NT-biotin hepcidin-25 was mixed with different amounts (0-100 ng) of synthetic hepcidin-25 standard in TBST, 0.25% BLOTTO and added onto the plate to bind competitively. The plate was washed with TBST and SA-HRP (1:2500) added and allowed to bind for 1 hour.
The plate was washed with TBST and […] substrate added and the reaction stopped after 10 minutes with stop solution. Absorbance at 450 nm was measured on a spectrophotometer.

[3] = molecular target: T2, BAP070-01 (human-mouse chimeric MAb 583); test: C-ELISA on goat anti-human Fc coat, hepcidin titrated against a labelled tracer not named for this figure
[4] = molecular target: T3, BAP070-hum01; test: as above
T3 construct: Expressed as soluble IgG1 in CHO cells, tested as supernatant; The entries stop inside FR4 (...WGQG / ...FG); also called humanized hit 1

[5] = molecular target: T4, BAP070-hum02; test: as above
T4 construct: Expressed as soluble IgG1 in CHO cells, tested as supernatant; The entries stop inside FR4

[6] = molecular target: T5, BAP070-hum03; test: as above
T5 construct: Expressed as soluble IgG1 in CHO cells, tested as supernatant; The entries stop inside FR4

[7] = molecular target: T6, BAP070-hum04; test: as above
T6 construct: Expressed as soluble IgG1 in CHO cells, tested as supernatant; The entries stop inside FR4

[8] = molecular target: T7, BAP070-hum05; test: as above
T7 construct: Expressed as soluble IgG1 in CHO cells, tested as supernatant; The entries stop inside FR4

[9] = molecular target: T8, BAP070-hum06; test: as above
T8 construct: Expressed as soluble IgG1 in CHO cells, tested as supernatant; The entries stop inside FR4

[10] = molecular target: T2, BAP070-01 (human-mouse chimeric MAb 583); test: C-ELISA: goat anti-human Fc coated plate, antibody captured (30 ng/well per title of FIG. 20D), unlabelled hepcidin titrated (ng/well per axis of FIG. 20D) against a labelled tracer not named for this figure; OD = tracer left on the antibody
[11] = molecular target: T3, BAP070-hum01; test: as above
[12] = molecular target: T4, BAP070-hum02; test: as above
[13] = molecular target: T5, BAP070-hum03; test: as above
[14] = molecular target: T6, BAP070-hum04; test: as above
[15] = molecular target: T7, BAP070-hum05; test: as above
[16] = molecular target: T8, BAP070-hum06; test: as above

T6 sequence (VH, as listed by the source, chain 1 of 2): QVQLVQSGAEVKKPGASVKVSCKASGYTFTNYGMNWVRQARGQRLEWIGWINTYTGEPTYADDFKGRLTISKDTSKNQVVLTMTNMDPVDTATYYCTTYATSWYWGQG
T6 sequence (VL, as listed by the source, chain 2 of 2): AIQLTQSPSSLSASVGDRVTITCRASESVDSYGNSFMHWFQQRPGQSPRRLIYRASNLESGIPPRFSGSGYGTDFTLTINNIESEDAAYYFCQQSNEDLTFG
T3 sequence (VL, as listed by the source, chain 2 of 2): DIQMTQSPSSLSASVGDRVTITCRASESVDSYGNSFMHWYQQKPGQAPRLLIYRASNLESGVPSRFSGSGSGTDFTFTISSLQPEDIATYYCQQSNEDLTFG
T4 sequence (VL, as listed by the source, chain 2 of 2): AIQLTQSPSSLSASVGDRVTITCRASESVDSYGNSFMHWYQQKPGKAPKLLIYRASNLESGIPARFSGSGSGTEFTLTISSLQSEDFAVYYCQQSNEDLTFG
T5 sequence (VH, as listed by the source, chain 1 of 2): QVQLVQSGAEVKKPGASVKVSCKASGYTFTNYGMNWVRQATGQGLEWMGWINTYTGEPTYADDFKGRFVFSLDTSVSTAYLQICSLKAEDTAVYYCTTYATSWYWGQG
T5 sequence (VL, as listed by the source, chain 2 of 2): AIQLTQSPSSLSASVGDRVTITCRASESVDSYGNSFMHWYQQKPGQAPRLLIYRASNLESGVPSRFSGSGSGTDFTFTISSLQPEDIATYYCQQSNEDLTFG
T7 sequence (VH, as listed by the source, chain 1 of 2): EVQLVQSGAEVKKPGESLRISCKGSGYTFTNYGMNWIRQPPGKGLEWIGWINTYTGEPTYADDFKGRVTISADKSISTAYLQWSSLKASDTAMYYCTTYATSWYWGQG
T2 sequence (VH, as listed by the source, chain 1 of 2): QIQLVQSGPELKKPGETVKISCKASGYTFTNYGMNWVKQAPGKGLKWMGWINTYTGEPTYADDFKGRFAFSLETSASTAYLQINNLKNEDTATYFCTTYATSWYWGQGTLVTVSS
T2 sequence (VL, as listed by the source, chain 2 of 2): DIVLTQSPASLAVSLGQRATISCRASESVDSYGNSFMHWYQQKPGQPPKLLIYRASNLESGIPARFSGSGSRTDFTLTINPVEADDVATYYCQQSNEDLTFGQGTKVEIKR
T1 sequence (VH, as listed by the source, chain 1 of 2): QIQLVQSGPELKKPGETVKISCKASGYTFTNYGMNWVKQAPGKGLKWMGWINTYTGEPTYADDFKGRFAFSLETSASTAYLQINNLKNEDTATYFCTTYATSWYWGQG
T1 sequence (VL, as listed by the source, chain 2 of 2): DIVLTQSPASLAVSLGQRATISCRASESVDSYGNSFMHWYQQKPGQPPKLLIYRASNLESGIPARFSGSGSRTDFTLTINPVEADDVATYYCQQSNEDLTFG

B1: Human hepcidin peptide (hepcidin-25) (peptide)
peptide: DTHFPICIFCCGCCHRSKCGMCCKT
notes: Synthetic 25 aa peptide; also called hep-25; Hep-25
EC50 [1]: ≤ 0.005 µg/mL
EC50 [2]: 0.054 µg/mL
IC50 (read off the curve) [3]: ~2 ng/well
IC50 (read off the curve) [4]: ~2 ng/well
IC50 (read off the curve) [5]: ~2 ng/well
IC50 (read off the curve) [6]: ~2 ng/well
IC50 (read off the curve) [7]: ~2 ng/well
IC50 (read off the curve) [8]: ~2 ng/well
IC50 (read off the curve) [9]: ~2 ng/well
OD450 at 0.000 ng/well hepcidin [10]: 2.88
OD450 at 0.137 ng/well hepcidin [10]: 2.77
OD450 at 0.412 ng/well hepcidin [10]: 2.65
OD450 at 1.235 ng/well hepcidin [10]: 1.77
OD450 at 3.704 ng/well hepcidin [10]: 0.826
OD450 at 11.111 ng/well hepcidin [10]: 0.334
OD450 at 33.333 ng/well hepcidin [10]: 0.125
OD450 at 100.000 ng/well hepcidin [10]: 0.0442
OD450 at 0.000 ng/well hepcidin [11]: 0.408
OD450 at 0.137 ng/well hepcidin [11]: 0.424
OD450 at 0.412 ng/well hepcidin [11]: 0.415
OD450 at 1.235 ng/well hepcidin [11]: 0.311
OD450 at 3.704 ng/well hepcidin [11]: 0.166
OD450 at 11.111 ng/well hepcidin [11]: 0.0849
OD450 at 33.333 ng/well hepcidin [11]: 0.0336
OD450 at 100.000 ng/well hepcidin [11]: 0.0144
OD450 at 0.000 ng/well hepcidin [12]: 0.812
OD450 at 0.137 ng/well hepcidin [12]: 0.844
OD450 at 0.412 ng/well hepcidin [12]: 0.814
OD450 at 1.235 ng/well hepcidin [12]: 0.539
OD450 at 3.704 ng/well hepcidin [12]: 0.279
OD450 at 11.111 ng/well hepcidin [12]: 0.125
OD450 at 33.333 ng/well hepcidin [12]: 0.0475
OD450 at 100.000 ng/well hepcidin [12]: 0.0189
OD450 at 0.000 ng/well hepcidin [13]: 2.13
OD450 at 0.137 ng/well hepcidin [13]: 2.1
OD450 at 0.412 ng/well hepcidin [13]: 1.96
OD450 at 1.235 ng/well hepcidin [13]: 1.48
OD450 at 3.704 ng/well hepcidin [13]: 0.653
OD450 at 11.111 ng/well hepcidin [13]: 0.281
OD450 at 33.333 ng/well hepcidin [13]: 0.0983
OD450 at 100.000 ng/well hepcidin [13]: 0.0359
OD450 at 0.000 ng/well hepcidin [14]: 0.433
OD450 at 0.137 ng/well hepcidin [14]: 0.446
OD450 at 0.412 ng/well hepcidin [14]: 0.415
OD450 at 1.235 ng/well hepcidin [14]: 0.301
OD450 at 3.704 ng/well hepcidin [14]: 0.148
OD450 at 11.111 ng/well hepcidin [14]: 0.0719
OD450 at 33.333 ng/well hepcidin [14]: 0.0303
OD450 at 100.000 ng/well hepcidin [14]: 0.0135
OD450 at 0.000 ng/well hepcidin [15]: 0.972
OD450 at 0.137 ng/well hepcidin [15]: 0.917
OD450 at 0.412 ng/well hepcidin [15]: 0.88
OD450 at 1.235 ng/well hepcidin [15]: 0.625
OD450 at 3.704 ng/well hepcidin [15]: 0.273
OD450 at 11.111 ng/well hepcidin [15]: 0.125
OD450 at 33.333 ng/well hepcidin [15]: 0.0505
OD450 at 100.000 ng/well hepcidin [15]: 0.0195
OD450 at 0.000 ng/well hepcidin [16]: 1.11
OD450 at 0.137 ng/well hepcidin [16]: 1.1
OD450 at 0.412 ng/well hepcidin [16]: 0.961
OD450 at 1.235 ng/well hepcidin [16]: 0.72
OD450 at 3.704 ng/well hepcidin [16]: 0.369
OD450 at 11.111 ng/well hepcidin [16]: 0.154
OD450 at 33.333 ng/well hepcidin [16]: 0.0599
OD450 at 100.000 ng/well hepcidin [16]: 0.0238
